The experiment deals with IL-17RA and IL-17RC co-expressed on 293F-IL-17RA-IL-17Rc-ACT1-NFκB-Luc reporter cells (Homo sapiens (Human)) (UniProt Q96F46). In words: FACS, IL-17A recombinant protein on 293F-IL-17RA-IL-17Rc-ACT1-NFκB-Luc cells. Background: In flow cytometry, cells or beads pass a laser one at a time.
UniProt Q96F46, sequence (Q96F46 33-866 limits assumed, chain 1 of 2): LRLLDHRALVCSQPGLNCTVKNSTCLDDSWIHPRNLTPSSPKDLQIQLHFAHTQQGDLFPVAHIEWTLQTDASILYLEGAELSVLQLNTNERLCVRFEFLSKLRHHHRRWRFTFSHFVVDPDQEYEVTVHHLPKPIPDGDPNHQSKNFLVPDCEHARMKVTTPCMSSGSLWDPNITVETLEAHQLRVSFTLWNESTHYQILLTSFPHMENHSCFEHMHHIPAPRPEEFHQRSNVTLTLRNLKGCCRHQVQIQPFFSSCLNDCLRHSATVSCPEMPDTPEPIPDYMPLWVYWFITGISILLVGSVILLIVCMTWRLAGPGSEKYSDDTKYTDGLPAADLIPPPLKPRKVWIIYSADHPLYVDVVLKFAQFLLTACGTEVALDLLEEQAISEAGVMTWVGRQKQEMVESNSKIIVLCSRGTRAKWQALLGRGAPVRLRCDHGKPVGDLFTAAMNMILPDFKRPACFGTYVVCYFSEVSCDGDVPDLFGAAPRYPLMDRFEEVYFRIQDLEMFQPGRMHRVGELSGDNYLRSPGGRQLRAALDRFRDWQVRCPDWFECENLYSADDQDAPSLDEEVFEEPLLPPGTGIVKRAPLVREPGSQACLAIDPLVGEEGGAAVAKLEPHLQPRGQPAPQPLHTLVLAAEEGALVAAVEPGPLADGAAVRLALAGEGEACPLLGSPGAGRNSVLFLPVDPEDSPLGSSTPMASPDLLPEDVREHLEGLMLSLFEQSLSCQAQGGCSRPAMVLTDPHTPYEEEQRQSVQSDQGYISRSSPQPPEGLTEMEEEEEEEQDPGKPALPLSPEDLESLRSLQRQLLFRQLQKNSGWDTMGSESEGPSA
UniProt Q96F46, sequence (chain, as listed by the source limits assumed, chain 2 of 2): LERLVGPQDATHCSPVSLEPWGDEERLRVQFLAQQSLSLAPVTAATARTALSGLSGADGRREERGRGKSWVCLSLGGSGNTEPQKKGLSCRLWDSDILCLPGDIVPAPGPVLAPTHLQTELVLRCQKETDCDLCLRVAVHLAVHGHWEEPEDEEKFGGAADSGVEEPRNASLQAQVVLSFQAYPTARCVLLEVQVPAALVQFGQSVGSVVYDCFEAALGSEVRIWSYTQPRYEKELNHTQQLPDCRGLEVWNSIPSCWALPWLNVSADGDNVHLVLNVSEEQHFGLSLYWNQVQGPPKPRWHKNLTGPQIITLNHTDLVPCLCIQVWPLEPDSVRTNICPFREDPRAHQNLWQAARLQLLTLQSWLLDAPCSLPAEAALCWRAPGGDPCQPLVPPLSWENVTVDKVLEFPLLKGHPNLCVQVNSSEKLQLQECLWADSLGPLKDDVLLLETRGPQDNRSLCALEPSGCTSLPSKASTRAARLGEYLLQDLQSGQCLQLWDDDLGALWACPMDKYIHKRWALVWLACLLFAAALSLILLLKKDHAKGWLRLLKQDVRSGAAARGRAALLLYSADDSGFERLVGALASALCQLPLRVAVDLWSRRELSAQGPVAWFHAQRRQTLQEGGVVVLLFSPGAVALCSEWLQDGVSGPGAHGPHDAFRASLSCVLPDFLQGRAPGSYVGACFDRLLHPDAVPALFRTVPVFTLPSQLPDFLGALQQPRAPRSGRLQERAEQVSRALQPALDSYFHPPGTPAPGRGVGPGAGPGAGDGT

Take “Human IL-17A重组蛋白 (C-terminal 6xHis) (from UniProt Q16552 24-155) (ligand)”: the 阳性率 is > 90 %.

The values above are taken from patent publication CN117843776A.
